According to patent publication US20210063414A1, “METHODS FOR PREVENTING AND/OR TREATING BONE LOSS CONDITIONS BY MODULATING IRISIN” (Dana-Farber Cancer Institute, Inc., priority 2018, published 2021):

Assays:
Experiment in all cases: Crosslinking/co-immunoprecipitation/mass spectrometry (TMT quantitative proteomics) to identify irisin receptors
Format in all cases: binding
[1] = biological target: T1, MLO-Y4 cell surface proteins (Mus musculus, UniProt Q9Z2I9); conditions: co-precipitated protein Sucla2 (SUCB1_MOUSE)
T1 construct: endogenous in cells; host or cells: MLO-Y4
T1 sequence (Q9Z2I9 54-463): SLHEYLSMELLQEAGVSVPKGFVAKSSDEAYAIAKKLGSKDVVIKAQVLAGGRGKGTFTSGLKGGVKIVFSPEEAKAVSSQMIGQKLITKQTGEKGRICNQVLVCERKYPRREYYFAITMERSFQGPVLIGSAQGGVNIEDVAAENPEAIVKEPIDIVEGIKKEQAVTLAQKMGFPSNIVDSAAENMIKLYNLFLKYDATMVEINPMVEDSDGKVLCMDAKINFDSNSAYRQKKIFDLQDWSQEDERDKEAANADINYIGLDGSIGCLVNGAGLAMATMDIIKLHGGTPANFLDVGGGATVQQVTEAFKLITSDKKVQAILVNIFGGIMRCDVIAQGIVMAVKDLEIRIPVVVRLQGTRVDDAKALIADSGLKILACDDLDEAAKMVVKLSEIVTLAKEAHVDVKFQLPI
Procedure, shortened: (§1)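 Relative protein abundance came from 6-plex TMT MS3 quantitation on an Orbitrap Fusion Lumos, after in-gel trypsin digestion of Coomassie-stained SDS-PAGE lanes. Input was a Ni-NTA pulldown (250 mM imidazole elution) of lysates from murine MLO-Y4 cells. These cells were treated on ice with His-tagged irisin or adipsin (10 nM, 20 min) in serum-free medium, then crosslinked with 1.5 mM DTSSP for 30 min.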

[2] = biological target: T2, MLO-Y4 cell surface proteins (Mus musculus, UniProt Q66L42); conditions: co-precipitated protein Map3k10 (M3K10_MOUSE)
T2 construct: endogenous in cells; host or cells: MLO-Y4
T2 sequence (Q66L42 whole entry): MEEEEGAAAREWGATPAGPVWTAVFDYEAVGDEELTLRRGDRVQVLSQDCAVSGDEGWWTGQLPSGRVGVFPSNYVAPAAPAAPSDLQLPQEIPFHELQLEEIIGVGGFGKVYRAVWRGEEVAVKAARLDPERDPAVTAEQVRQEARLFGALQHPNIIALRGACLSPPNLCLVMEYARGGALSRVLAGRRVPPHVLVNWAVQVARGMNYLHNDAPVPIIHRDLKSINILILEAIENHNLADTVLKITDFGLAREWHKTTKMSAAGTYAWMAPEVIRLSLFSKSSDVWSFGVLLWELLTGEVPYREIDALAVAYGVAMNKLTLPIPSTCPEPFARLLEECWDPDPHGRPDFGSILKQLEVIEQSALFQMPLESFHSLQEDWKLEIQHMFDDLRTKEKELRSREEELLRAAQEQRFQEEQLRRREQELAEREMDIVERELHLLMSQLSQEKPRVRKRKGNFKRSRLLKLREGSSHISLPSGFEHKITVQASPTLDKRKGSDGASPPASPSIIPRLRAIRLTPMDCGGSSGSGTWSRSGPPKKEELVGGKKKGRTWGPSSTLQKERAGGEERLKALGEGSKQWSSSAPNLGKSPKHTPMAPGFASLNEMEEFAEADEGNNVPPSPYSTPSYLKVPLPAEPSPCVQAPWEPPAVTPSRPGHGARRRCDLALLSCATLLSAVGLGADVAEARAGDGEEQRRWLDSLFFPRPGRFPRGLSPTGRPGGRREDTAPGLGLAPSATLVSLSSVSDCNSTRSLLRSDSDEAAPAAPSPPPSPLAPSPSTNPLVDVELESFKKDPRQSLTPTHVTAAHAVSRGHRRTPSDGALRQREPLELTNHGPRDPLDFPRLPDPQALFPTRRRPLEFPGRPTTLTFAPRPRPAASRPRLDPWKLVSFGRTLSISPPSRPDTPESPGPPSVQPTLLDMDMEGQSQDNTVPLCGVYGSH
Procedure, shortened: as §1

[3] = biological target: T3, MLO-Y4 cell surface proteins (Mus musculus, UniProt P97350); conditions: co-precipitated protein Pkp1 (PKP1_MOUSE)
T3 construct: endogenous in cells; host or cells: MLO-Y4
T3 sequence (P97350 1-728): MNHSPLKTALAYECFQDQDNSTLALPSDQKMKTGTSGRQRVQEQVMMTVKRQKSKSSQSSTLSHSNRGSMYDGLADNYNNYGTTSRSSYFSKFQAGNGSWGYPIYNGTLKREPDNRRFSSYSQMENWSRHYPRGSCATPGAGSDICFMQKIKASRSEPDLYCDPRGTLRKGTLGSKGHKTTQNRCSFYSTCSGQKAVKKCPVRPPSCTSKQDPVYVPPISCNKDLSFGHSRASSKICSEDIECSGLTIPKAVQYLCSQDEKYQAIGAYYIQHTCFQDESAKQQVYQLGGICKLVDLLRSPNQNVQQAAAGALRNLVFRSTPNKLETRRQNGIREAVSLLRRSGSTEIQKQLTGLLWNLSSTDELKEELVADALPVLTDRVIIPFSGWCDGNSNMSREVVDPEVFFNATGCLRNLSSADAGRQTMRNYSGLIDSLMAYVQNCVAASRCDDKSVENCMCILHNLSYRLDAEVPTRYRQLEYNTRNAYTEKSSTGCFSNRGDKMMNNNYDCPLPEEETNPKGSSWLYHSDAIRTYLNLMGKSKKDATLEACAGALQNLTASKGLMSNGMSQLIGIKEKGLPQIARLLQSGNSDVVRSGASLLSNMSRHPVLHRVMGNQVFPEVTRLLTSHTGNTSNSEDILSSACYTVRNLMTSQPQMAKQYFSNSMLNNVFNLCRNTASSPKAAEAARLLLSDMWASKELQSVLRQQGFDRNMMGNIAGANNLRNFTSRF
Procedure, shortened: as §1

B1: irisin: secreted cleaved form of FNDC5; recombinant human/mouse irisin with C-terminal his tag produced in HEK293 cells (protein)
chain: DSPSAPVNVTVRHLKANSAVVSWDVLEDEVVIGFAISQQKKDVRMLRFIQEVNTTTRSCALWDLEEDTEYIVHVQAISIQGQSPASEPVLFKTPREAEKMASKNKDEVTMKE
modifications: left off: small tags and cut ends
notes: secreted cleaved form of FNDC5; recombinant human/mouse irisin with C-terminal his tag produced in HEK293 cells
Q: B1 was tested. Which TMT signal-to-noise ratio [1] did it give?
A: 19.8331

Q: What about the “irisin/adipsin TMT signal-to-noise ratio” value [1] of the same molecule?
A: 0.390

Q: And the TMT signal-to-noise ratio [2]?
A: 3.455

Q: What about the “irisin/adipsin TMT signal-to-noise ratio” value [2] of the same molecule?
A: 0.032

Q: What about the TMT signal-to-noise ratio [3] of the same molecule?
A: 8.015

Q: What about the “irisin/adipsin TMT signal-to-noise ratio” value [3] of the same molecule?
A: 0.082
